The source of these data is paper PMC5031558.

This assay addresses HOIP PUB domain (aa 1–184) (UniProt Q96EP0). The assay is described as follows: fluorescence polarisation; FITC-Ahx-labeled PIM peptides with purified PUB domains; triplicate. Background: In fluorescence polarisation assays a small probe gives low polarisation when free and higher when bound to something large.

Sequence of HOIP PUB domain (aa 1–184) (Q96EP0 1-184): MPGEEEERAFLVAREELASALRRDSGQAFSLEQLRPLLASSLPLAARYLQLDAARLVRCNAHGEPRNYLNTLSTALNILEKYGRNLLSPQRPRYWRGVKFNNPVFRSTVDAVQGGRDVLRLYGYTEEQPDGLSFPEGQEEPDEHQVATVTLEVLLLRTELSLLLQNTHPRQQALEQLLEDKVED

One may read the Kd as the free concentration of one partner at which half of the binding sites on the other are occupied at equilibrium, for simple one-to-one binding. Read a low Kd as tighter binding. With FITC-Ahx-labeled OTULIN PIM peptide, the Kd amounted to 300 nM. In turn, FITC-Ahx-labeled SPATA2 PIM peptide displayed a Kd of 300 nM.
